The nature of this data set: label from the status in PepcDB records.

For 17 sequences, protein production results are on record in a protein production outcome set (Wang et al. 2014).

Regarding “MPKKPLIDQLHHEDSWRLFRILAEFVEGFETLSELQVPLVSVFGSARFGEGHPAYEAGYRLGRALAEAGFGVVTGGGPGVMEAVNRGAYEAGGVSVGLNIELPHEQKPNPYQTHALSLRYFFVRKVLFVRYAVGFVFLPGGFGTLDELSEVLVLLQTEKVHRFPVFLLDRGYWEGLVRWLAFLRDQKAVGPEDLQLFRLTDEPEEVVQALKAEAPPR”, the protein production entry was “not failed”.

Take “MPKLPLLLSFPLLFFASFAYADEDFVTCYSVLKFINANDGSRLHSHDVKYGSGSGQQSVTAVKNSDDINSHWQIFPALNAKCNRGDAIKCGDKIRLKHLTTGTFLHSHHFTAPLSKQHQEVSAFGSEAESDTGDDWTVICNGDEWLESEQFKLRHAVTGSYLSLSGQQFGRPIHGQREVVGTDSITGGSAWKVAEGIYIKHQQKDL”: the protein production result is recorded as “not failed”.

On to “MPKLSLIIATFNDAIGLARCLDSIEQQTVRADCEVLVFDNASSDGTVELLQGWSDRLTYWESERDRGIYHAWNKAIARASGDYVAFVGADDYYASPTALQQLLELTVGQPDLVSGRNAYYSPEGKFLRTWGYAWDWQRMRESMILSHPGLLMRRSLFDRIGLFDERFRICGDYDWLLRLPPDLKAVHTNQVILCLSMGGLSNTRISRVFAETFQAQRRQPDLGRWRSGVYWLINWLKFGRRKLIGLA”, for which the protein production result is “failed”.

“MPKLSVIVPTFNRQVLLEKAIKSIQNQDFKDLEIIVSDDNSSDDTKSVVQNLQKDDDRIKYFLNQNYKQGPNGNKNNGLDQASGEFVTFLDDDDELLSGALSTLMQKANEGYAHVFGNCLIEKEGNLSKEFSGKGLEKDSEISKKDFLMAKFSGEFFSVFKKSLLENKRFNEEFYGNEATLWVNLYKEKSFYIHKAFRIYRIFRQDSVTLGASKNAYRVYLGYLELAKILENELRMSKDKDYKKTCASYYKMAAYYAKLAKNYKALYKCLFKSLSIKINAPALILLILSIIPNNMIEKLSKIRVALCKN”: the protein production result is “failed”.

“MPKTKLTSPPFKILKCTECDACINVPSILQSNEQAECPRCHHLLASGTRWSLHRCAMIALSILILMPFSLNYPLLSLHLLGIKIDASIWDGIWKMAVGGYEYTAFMIFICAVVMPITFALLVIMLWLAKIFQIKPRSVLLFLGYIKAWVMFDVYLVALGVTIFKVREYATLEINIYLIPFIFTALLTTLLFIKLNLSALWQEFYPECTSVYTKQAVELCPACHYTFTQKSIHYDHQQKICCPRCQSPLNTSDKLKLQATWATLIAGIIMLFPANLLPISGIYLTGALSEDTLISGVISFVKSGSYFVAFVVFFASIFVPISKIFIMLYLLACVHFKWQHSIKWQMRLLHLVHFVGRWSMLDLFVLALMMSLVTRGEIINFTVGPGAFYFGAAVFCTMLSTSQFDSKLIWKIYDREK”: the protein production result is given as “failed”.

As to “MPKVNLYATFRDLTGKSQLELPGATVGEVLENLVRAYPALKEELFEGEGLAERVSVFLEGRDVRYLQGLSTPLSPGATLDLFPPVAGGGFERTFGAFPPWLLERYLEEWGGTREGEGVYRLPGAVVRFREVEPLKVGSLSIPQLRVEVEGEEAERWFERIAFAASRGGG”, the protein production result is reported as “not failed”.

With “MPLDAPPLLPSADSDSTVSILQAKGDAPPAAATAAVGWPLLALTTWFGSGLIPLAPGTMGSIAALPFAWAIAWTWGPWALAPAAALVFVIGTLAAEAHVRRSGEKDPQRIVIDEVAGQWLTLAVAPLDPLAYGVGLVLFRICDITKPWPACWADRSVPGGFGIMLDDGFAAVYSTCMMALYVHYFM”, the protein production entry was “failed”.

Turning to “MPLDRDWIAQRIPHAGAMCLLDRVLTWDAGRLRCVAVSHLSPGNPLRAGGRLSVVCGIEYAAQATAVHGALRSAGEGEAPRSGFLVSVRDVEFHVRRLDTLDGDLVVEVECLTGDGNDALYRFRLLAADGRELLTGRLAVRLDAEAGLEHHHHHH”, the protein production result is “not failed”.

Consider “MPLITTETGKKMHVLEDGRKLITVIPGDGIGPECVEATLKVLEAAKAPLAYEVREAGASVFRRGIASGVPQETIESIRKTRVVLKGPLETPVGYGEKSANVTLRKLFETYANVRPVREFPNVPTPYAGRGIDLVVVRENVEDLYAGIEHMQTPSVAQTLKLISWKGSEKIVRFAFELARAEGRKKVHCATKSNIMKLAEGTLKRAFEQVAQEYPDIEAVHIIVDNAAHQLVKRPEQFEVIVTTNMNGDILSDLTSGLIGGLGFAPSANIGNEVAIFEAVHGSAPKYAGKNVINPTAVLLSAVMMLRYLEEFATADLIENALLYTLEEGRVLTGDVVGYDRGAKTTEYTEAIIQNLGKTPRKTQVRGYKPFRLPQVDGAIAPIVPRSRRVVGVDVFVETNLLPEALGKALEDLAAGTPFRLKMISNRGTQVYPPTGGLTDLVDHYRCRFLYTGEGEAKDPEILDLVSRVASRFRWMHLEKLQEFDGEPGFTKAQGED”, for which the protein production result is “not failed”.

Turning to “MPLLIITTILWAFSFSLIGEYLAGQVDSWFSAMFRLTAAAVVFLPFLRWRGYAPRVIFLYMLVGACQLGIMYLFVFQAYLYLTVPEFLLFTVMTPLYVTLIYDLLARHRLRWGYVMSALLAVFGAAVIHYHGVSEHFWWGFLLVQVANVCFASGQVGYKRLMEIHPVPQHCAFSWFYLGAAIVTIAAWLLFGNMDKLPTTTLQWGVLAWLGIGASGVGYFMWNYGATQVDAGTLSIMNNFHVPAGLLVNFAIWHKTPDWLSFIVGTAIITSSLWVHQHWVVKRPLRTANDHKRADAQNE”, the protein production entry is on record as “failed”.

With “MPLLPHNRTALGFLLRHLIAGLTGGLVFGGLILALDISGLRSMLMASQDGLLYTLLLFFGLSVTFGGVAMGVGVMSLGEDKN”, the protein production result is recorded as “failed”.

As to “MPLRLDIKRKLTAMSDRVKSVDLHPTEPWMLASLYNGSVCVWNHETQTLVKTFEVCDLPVRAAKFVARKNWVVTGADDMQIRVFNYNTLERVHMFEAHSDYIRCIAVHPTQPFILTSSDDMLIKLWDWDKKWSCSQVFEGHTHYVMQIVINPKDNNQFASASLDRTIKVWQLGSSSPNFTLEGHEKGVNCIDYYSGGDKPYLISGADDRLVKIWDYQNKTCVQTPEGHAQNVSCATFHPELPIIITGSEDGTVRIWHSSTYRLESTLNYGMERVWCVASLRGSNNVALGYDEGSIIVKLGREEPAMSMDANGKIIWAKHSEVQQANLKAMGDTEIKDGERLPLAVKDMGSCEIYPQTIQHNPNGRFVVVCGDGEYIIYTAMALRNKSFGSAQEFAWAHDSSEYAIRESNSVVKIFKNFKEKKSFKPDFGAESIYGGFLLGVRSVNGLAFYDWENTELIRRIEIQPKHIFWSDSGELVCIATEESFFILKYLSEKVLAAQETHEGVTEDGIEDAFEVLGEIQEIVKTGLWVGDCFIYTSSVNRLNYYVGGEIVTIAHLDRTMYLLGYIPKDNRLYLGDKELNIVSYSLLVSVLEYQTAVMRRDFSMADKVLPTIPKEQRTRVAHFLEKQGFKQQALTVSTDPEHRFELALQLGELKIAYQLAVEAESEQKWKQLAELAISKCQFSLAQECLHHAQDYGGLLLLATASGNASMVNKLAEGAERDGKNNVAFMSYFLQGKLDACLELLIRTGRLPEAAFLARTYLPSQVSRVVKLWRENLSKVNQKAAESLADPTEYENLFPGLKEAFVVEEWVKETHADLWPAKQYPLVTPNEERNVMEEAKRFQPSRATAQQEPDGKPASSPVIMASQTTHKEEKSFQELEDDLDTMELEDIDTTDINLDEDILDD”, the protein production result is reported as “failed”.

Take “MPLVLHHPERQAELGSGLRDGGGAALRPPGRLVKQMDFTEAYADTCSTVGLAAREGNVKVLRKLLKKGRSVDVADNRGWMPIHEAAYHNSVECLQMLINADSSENYIKMKTFEGFCALHLAASQGHWKIVQILLEAGADPNATTLEETTPLFLAVENGQIDVLRLLLQHGANVNGSHSMCGWNSLHQASFQENAEIIKLLLRKGANKECQDDFGITPLFVAAQYGKLESLSILISSGANVNCQALDKATPLFIAAQEGHTKCVELLLSSGADPDLYCNEDSWQLPIHAAAQMGHTKILDLLIPLTNRACDTGLNKVSPVYSAVFGGHEDCLEILLRNGYSPDAQACLVFGFSSPVCMAFQKDCEFFGIVNILLKYGAQINELHLAYCLKYEKFSIFRYFLRKGCSLGPWNHIYEFVNHAIKAQAKYKEWLPHLLVAGFDPLILLCNSWIDSVSIDTLIFTLEFTNWKTLAPAVERMLSARASNAWILQQHIATVPSLTHLCRLEIRSSLKSERLRSDSYISQLPLPRSLHNYLLYEDVLRMYEVPELAAIQDG”: the protein production entry was “failed”.

For “MPMSFSLTQMILISAAYLAVLFGVAWISERGMIPRSIIRHPLTYTLSLGVYASAWAFYGTVGLAYQYGYGFLSSYLGVSGAFLLAPVLLYPILKITRTYQLSSLADLFAFRFRSTWAGALTTIFMLIGVLPLLALQIQAVADSIGILTHEPVQHRVALSFCALITLFTIFFGSRHIATREKHEGLVFAIAFESVIKLIAIGGVGLYALYGVFDGPQQLELWLLQNQTALAALHTPLQEGPWRTLLLVFFASAIVMPHMYHMTFTENLNPRALVSASWGLPLFLLLMSLAVPLILWAGLKLGATTNPEYFTLGIGIAANSPALALLAYVGGLSAASGLIIVTTLALSGMALNHLVLPLYQPPAEGNIYRWLKWTRRALIVAIIMAGYAFYLLLGAEQDLANLGIVAFVATLQFLPGVLSVLYWPTANRRGFIAGLLAGILVWLVTMLLPLIGNLQGFYIPLLNMIYVLDDTSWHMAAIASLAANVLMFTLISLFTNASTEEASAAEACAVDNVRRPQRRELHAASPQEFATQLAKPLGAKAAQKEVEQALRDLYLPFDERRPYALRRLRDRIEANLSGLMGPSVAQDMVETFLPYKAGGENYVTEDIHFIESRLEDYHSRLTGLAAELDALRRYHRQTLQELPMGVCSLAKDQEILMWNKAMEELTGIPAQHVVGSRLSTITNPWKDLLQGFINLPDEHLHKQHLALDGQTRWLNLHKAAIDEPLAPGNSGLVLLVEDLTETQTLEDKLVHSERLASIGRLAAGVAHEIGNPITGIACLAQNLREEREEDGELTEISEQILEQTKRISRIVQSLMSFAHAGSHQHNDEAVCLAEVAQDAIGLLALNRRNFEVQFFNLCDPDHWVDGDPQRLAQVLINLLSNARDASPPGSAVRVKSEAFEHTVDLIVEDEGSGIPKNIMDRLFEPFFTTKDPGEGTGLGLALVYSIVEEHYGQITIDSPADPQSQRGTRIRVTLPRHVEATSAVN”, the protein production result was “failed”.

Turning to “MPMSQSTFTILLGGELSLTERLRDAIEDSRFIAADGGMRHAAALGITPELWVGDFDSTPADLADAFPDVPKQPYPAAKAATDGEIAVAEAIARGARRLILAGALGGERSDHALQHLLSAVSLAEEGFDLLLTSGKEEAVPLVAGTIELDLPKGSLFSVPGFSELRGLAIENARYPLADFHLPFGSSRTISNVAEGKVRFSLRSGRAIVLARPYDLSGV”, the protein production entry is recorded as “failed”.

With “MPMTIKRATWNNGPDLAFDINNKANAAIEKYGREAVINAALGTLLDDKGKIIALPSVYDRLDEMDRSHIASYAPIEGEKDYRKIVIDTLFGPYKPEGYISAIATPGGTGAIRSAIFSYLDEGDPLICHDYYWAPYRKICEEFGRNFKTFEFFTDDFAFNIDVYKEAIDEGIRDSDRIASLINSPGNNPTGYSLSDEEWDEVITFLKEKAEDKDKKITLIVDVAYLEFAGDGDQQRKFFEKFSNLPRNLFVVVAFSMSKSHTAYGLRSGAAVGISSSKEIIEEFEASLAHSARCNWSNGTHAAQNILIELERAENKKIYEQELVDLRNMLKSRADVFVTAAKENKLTMIPYFGGFFTFIPTDKAFDIVKDLEKENIFTIPSAKGIRVAICGVGEEKIPKLVQRLAFYTNKK”, the protein production result was “not failed”.

On to “MPNCEKEALVVAAAMEKGTIHPIGRYLLPQYWEGPPLCFEYFPGRGLTATVSCIESVTEGNKLRKSSLGSVEFITSLFESQDQSREIKNAVNSSLYGNDFVHALLSLYQKVTLIHLEDQPHQPFYRPISLNLRHVMIKINTFIQFFFRMNQISNHEIGSFSAFATQFFSFLTHYSILPNPINSLNPTLRPLVPCTIHELAPPPAPPPFPSCKSAM”, for which the protein production entry is reported as “failed”.
